For experiment [1], the target named is GST-tagged ChYtm1 (Chaetomium thermophilum) (UniProt G0SFB5). Briefly: BLI.
The target of experiment [2] is T1, 6xHis-tagged ChYtm1 (Ytm1 from Chaetomium thermophilum) (Chaetomium thermophilum, UniProt G0SFB5 1-495).
T1 sequence (looked up): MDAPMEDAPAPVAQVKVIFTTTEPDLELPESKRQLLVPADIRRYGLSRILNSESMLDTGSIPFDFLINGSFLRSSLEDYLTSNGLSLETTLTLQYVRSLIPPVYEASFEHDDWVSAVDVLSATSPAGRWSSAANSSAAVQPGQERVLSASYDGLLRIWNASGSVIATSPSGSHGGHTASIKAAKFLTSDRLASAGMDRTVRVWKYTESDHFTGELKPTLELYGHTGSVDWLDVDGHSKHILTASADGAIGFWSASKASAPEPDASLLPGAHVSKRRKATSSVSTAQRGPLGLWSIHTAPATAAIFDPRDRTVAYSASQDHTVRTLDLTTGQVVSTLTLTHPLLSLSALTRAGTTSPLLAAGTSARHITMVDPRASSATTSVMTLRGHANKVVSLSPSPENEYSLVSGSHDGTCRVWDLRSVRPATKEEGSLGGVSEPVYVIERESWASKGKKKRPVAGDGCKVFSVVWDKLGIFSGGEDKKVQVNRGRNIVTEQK
Put plainly: ITC.

Consider “6xHis-ChErb1[R486E], full-length (from UniProt G0SCK6 1-801) (natural protein)”, for which the fold loss of affinity (KD) against the ChErb1-ChYtm1 interaction in experiment [1] amounted to 100 fold.
With “ChErb1 R486A mutant (from UniProt G0SCK6 1-801) (natural protein)”, the Kd in experiment [1] worked out at 7 nM.

B1: 6xHis-ChErb1_(432–801) (β-propeller domain of ChErb1) (domain or fragment, Chaetomium thermophilum, UniProt G0SCK6 432-801, looked up)
chain: LPSPDELKPFPTVQQTIFRGHEGRVRSVAIDPTGVALATGGDDGTVRVWELLTGRQVWSVKLNGDEAVNTVRWRPTKDTFILAAAAGEDIFLMIPTHPSVTPALDQASRDILNAGFGHATNGKQQANLPPGKEPPGKWARPGTRLEDEGVLLRITVRSTIKAISWHRRGDHFATVSPSGQRSSVAIHTLSKHLTQIPFRKLNGLAQTASFHPLRPLFFVATQRSIRCYDLQKLELVKIVQPGAKWISSFDVHPGGDNLVVGSYDKRLLWHDLDLSNRPYKTMRFHTEAIRAVRFHKGGLPLFADASDDGSLQIFHGKVPNDQLENPTIVPVKMLKGHKVVNKLGVLDIDWHPREPWCVSAGADGTARLWM
In the case of B1, the Kd in experiment [2] is roughly 9 nM.

The values are drawn from publication PMC4678814 (Nucleic Acids Research, 2015).
